This note sets out measurements from article PMC4002904.

In experiment [1] the target is GAL4 DNA-binding domain fused full-length HBSP (Hepatitis B virus). Kind of experiment: two-hybrid; CheckMate mammalian two-hybrid in Huh-7 cells; pACT-EPHX1(353-455) with pBIND constructs and pG5luc reporter; renilla-normalised firefly luciferase at 48 h, relative to pBIND + pACT set to 1.
In experiment [2] the target is GAL4 DNA-binding domain fused N terminal 47 amino acids of HBSP (Hepatitis B virus). The experiment is described as above.

B1: VP16-tagged mEH 353-455 (domain or fragment)
chain: DLLTNVMLYWTTGTIISSQRFYKENLGQGWMTQKHERMKVYVPTGFSAFPFELLHTPEKWVRFKYPKLISYSYMVRGGHFAAFEEPELLAQDIRKFLSVLERQ
Take B1: the fold luciferase activity over the negative control in experiment [1] worked out at 9 fold; in experiment [2] it was 12 fold.
